Assay results: US20250152742A1, “COMPOSITIONS AND METHODS FOR NEUROLOGICAL DISEASES” (Trames Bio, Inc., priority 2022, published 2025)

Test system: engineered chimeric receptor SEQ ID NO: 33 and its mutants (human α7-nAChR ligand binding domain / human GlyRα1 ion pore domain) in Lenti-X 293T cells
Test: YFP fluorescence quenching anion reporter plate reader assay (percent quench, EC50)
Type: cell-based
Details: for YFP fluorescence quenching using CNL001 (percent quench): receptor named in row; for YFP fluorescence quenching using Varenicline, 3 nM var: ligand Varenicline 3 nM; for YFP fluorescence quenching using Varenicline, 30 nM var: ligand Varenicline 30 nM; for YFP fluorescence quenching using Varenicline, 300 nM var: ligand Varenicline 300 nM; for YFP fluorescence quenching using Varenicline, 500 nM var: ligand Varenicline 500 nM; for YFP fluorescence quenching using Varenicline, 1 uM var: ligand Varenicline 1 uM
Description: To screen these mutant LGICs for those having novel response profiles to ligands, an anion reporter assay was developed to assess the function of the LGICs in a high throughput format. In this assay, cells expressing a YFP reporter whose fluorescence is quenched in the presence of anion are transfected with DNA encoding the channel of interest. Upon exposure to ligand, channels that are activated will flux anion, resulting in a dose-dependent quench of the YFP that can be detected on a plate reader. The greater the quench signal (i.e., the more positive the value), the higher the ligand activity on the receptor is.
Lenti-X 293T cells (LX293T, Clontech) were maintained in DMEM containing 10% FBS and 1% penicillin/streptomycin (Invitrogen). […] Two days before assay, cells were split at a density of 20,000 cells/well in a 96-well tissue culture plate coated with poly-d lysine (Thermo Scientific). The next day, the cells were transiently transfected with 0.1 μg of DNA per well using standard Fugene protocol (Promega). On the day of assay, cells were washed 2 times in 1X extracellular solution (1X ECS: 140 mM NaCl, 5 mM KCl, 1 mM MgCl2, 2 mM CaCl2, 10 mM HEPES, 10 mM glucose, pH 7.2, mOsms 300). After the last wash, 100 μL of 1X ECS was added to the wells and the plate was incubated at 37° C. for 30 min. While incubating the plate, the drugs were diluted to a 2X concentration in 1X ECS-Nal (same components as 1X ECS except the 140 mM NaCl was replaced by 140 mM Nal). The plates were then read on a Flexstation3 (Molecular Devices). Each well, 8 wells at a time, of the plate is read for 2 min using a Flexstation3 (Molecular Devices) as follows: 1) a baseline YFP fluorescence is read for 17 sec, 2) 100 μL of ligand is added, and 3) the changes in YFP fluorescence are then measured every 1.3 sec for 1 minute and 43 seconds. The percent quench is calculated from the average fluorescence of the last 10 seconds of the read divided by the baseline average of the first 15 seconds prior to the ligand addition.
FIGS. 1A-1J provide heat maps of the percent quench of YFP fluorescence following stimulation by various doses of either acetylcholine or the non-native ligand as indicated in the Figures. CODA71 (SEQ ID NO: 33) was used as a control, and CODA75 (SEQ ID NO: 29, a non-responding chimeric engineered receptor) was used as the negative control. Quenching of the fluorescence signal, as indicated by blue shaded cells, indicate the level of engineered receptor activation by the non-native ligand at that concentration.

B1: CODA326: engineered receptor: L131A in SEQ ID NO: 33 (protein)
chain: MRCSPGGVWLALAASLLHVSLQGEFQRKLYKELVKNYNPLERPVANDSQPLTVYFSLSLLQIMDVDEKNQVLTTNIWLQMSWTDHYLQWNVSEYPGVKTVRFPDGQIWKPDILLYNSADERFDATFHTNVAVNSSGHCQYLPPGIFKSSCPMDLKNFPMDVQTCKLKFGSWSYGGWSLDLQMQEADISGYIPNGEWDLVGIPGKRSERFYECCKEPYPDVTFTVTMRRRMGYYLIQMYIPSLLIVILSWISFWINMDAAPARVGLGITTVLTMTTQSSGSRASLPKVSYVKAIDIWMAVCLLFVFSALLEYAAVNFVSRQHKELLRFRRKRRHHKSPMLNLFQEDEAGEGRFNFSAYGMGPACLQAKDGISVKGANNSNTTNPPPAPSKSPEEMRKLFIQRAKKIDKISRIGFPMAFLIFNMFYWIIYKIVRREDVHNQ
modifications: synthetic sequence of chimeric LGIC
- YFP fluorescence quenching using CNL001 (percent quench) (1 nM CNL001, first column so headed): 76.424%
- YFP fluorescence quenching using CNL001 (percent quench) (1 nM CNL001, second column so headed): 80.567%
- YFP fluorescence quenching using TC-5619/Bradanicline (percent quench) (3 nM brd (TC-5619/Bradanicline)): 72.24%
- YFP fluorescence quenching using CNL001 (percent quench) (10 nM CNL001, first column so headed): 80.284%
- YFP fluorescence quenching using CNL001 (percent quench) (10 nM CNL001, second column so headed): 81.232%
- YFP fluorescence quenching using TC-6683 (percent quench) (30 nM TC-6683): −16.28%
- YFP fluorescence quenching using TC-5619/Bradanicline (percent quench) (30 nM brd (TC-5619/Bradanicline)): 77.4%
- YFP fluorescence quenching using CNL001 (percent quench) (50 nM CNL001, first column so headed): 81.575%
- YFP fluorescence quenching using CNL001 (percent quench) (50 nM CNL001, second column so headed): 82.544%
- YFP fluorescence quenching using ABT-126 (percent quench) (50 nM abt (ABT-126)): −21.91%
- YFP fluorescence quenching using CNL001 (percent quench) (100 nM CNL001, first column so headed): 81%
- YFP fluorescence quenching using CNL001 (percent quench) (100 nM CNL001, second column so headed): 81.718%
- YFP fluorescence quenching (percent quench) (100 nM CNL002): 27.88%
- YFP fluorescence quenching using ABT-126 (percent quench) (100 nM abt (ABT-126)): −0.5%
- YFP fluorescence quenching using AZD-0328 (percent quench) (100 nM azd0328): 80.39%
- YFP fluorescence quenching using TC-6683 (percent quench) (300 nM TC-6683): −11.73%
- YFP fluorescence quenching using ABT-126 (percent quench) (300 nM abt (ABT-126)): 34.86%
- YFP fluorescence quenching using AZD-0328 (percent quench) (300 nM azd0328): 82.07%
- YFP fluorescence quenching using TC-5619/Bradanicline (percent quench) (300 nM brd (TC-5619/Bradanicline)): 78.02%
- YFP fluorescence quenching using CNL001 (percent quench) (1 uM CNL001, first column so headed): 82.334%
- YFP fluorescence quenching using CNL001 (percent quench) (1 uM CNL001, second column so headed): 81.539%
- YFP fluorescence quenching (percent quench) (1 uM CNL002): 73.79%
- YFP fluorescence quenching using ABT-126 (percent quench) (1 uM abt (ABT-126)): 56.66%
- YFP fluorescence quenching using TC-6683 (percent quench) (3 uM TC-6683): −2.38%
- YFP fluorescence quenching (percent quench) (10 uM ach (acetylcholine)): 7.43%
- YFP fluorescence quenching (percent quench) (30 uM CNL002): 75.89%
- YFP fluorescence quenching using TC-6683 (percent quench) (30 uM TC-6683): −9.77%
- YFP fluorescence quenching using AZD-0328 (percent quench) (30 uM azd0328): 82.23%
- YFP fluorescence quenching using TC-6683 (percent quench) (100 uM TC-6683): 0.97%
- YFP fluorescence quenching (percent quench) (100 uM ach (acetylcholine)): 73.57%
- YFP fluorescence quenching (percent quench) (1 mM ach (acetylcholine)): 71.8%
- YFP fluorescence quenching (percent quench) (3 mM ach (acetylcholine)): 74.49%
- YFP fluorescence quenching using Facinicline, 30 nM fac (ligand Facinicline 30 nM): 69.94
- YFP fluorescence quenching using Facinicline, 300 nM fac (ligand Facinicline 300 nM): 80.07
- YFP fluorescence quenching using Facinicline, 30 uM fac (ligand Facinicline 30 uM): 78.32
- YFP fluorescence quenching using TC-6987, 1 uM tc6987 (ligand TC-6987 1 uM): 73.37
- YFP fluorescence quenching using TC-6987, 10 uM tc6987 (ligand TC-6987 10 uM): 78.18
- YFP fluorescence quenching using TC-6987, 500 uM tc6987 (ligand TC-6987 500 uM): 75.42
- YFP fluorescence quenching using Varenicline, 3 nM var (first column): −5.939
- YFP fluorescence quenching using Varenicline, 3 nM var (second column): −2.294
- YFP fluorescence quenching using Varenicline, 30 nM var (first column): 68.663
- YFP fluorescence quenching using Varenicline, 30 nM var (second column): 70.718
- YFP fluorescence quenching using Varenicline, 300 nM var (first column): 79.88
- YFP fluorescence quenching using Varenicline, 300 nM var (second column): 79.742
- YFP fluorescence quenching using Varenicline, 500 nM var (first column): 79.311
- YFP fluorescence quenching using Varenicline, 500 nM var (second column): 80.029
- YFP fluorescence quenching using Varenicline, 1 uM var (first column): 80.952
- YFP fluorescence quenching using Varenicline, 1 uM var (second column): 79.329
